IC50(µM), plaque assay, infection of MDCK cells data for 14 substances are collected here from patent US20100119588A1.

The target in one assay is hemagglutinin H3 on influenza virus A/Aichi/2/68 strain (H3N2) (influenza virus A/Aichi/2/68 (H3N2)) (UniProt P03437). The assay is described as follows: cell-based or functional assay.
Substance C18-s2(1-4)P4A (C18-ARLA peptide amide) had an IC50(µM), plaque assay, infection of MDCK cells greater than 100 µM.

As to C18-s2(1-5) (C18-ARLPR peptide amide), the IC50(µM), plaque assay, infection of MDCK cells was 3 µM.

In the case of C18-s2(1-2) (C18-AR peptide amide), the IC50(µM), plaque assay, infection of MDCK cells is greater than 100 µM.

As to C18-s2(1-7) (C18-ARLPRTM peptide amide), the IC50(µM), plaque assay, infection of MDCK cells worked out at 9.1 µM.

Substance C18-s2(2-8) (C18-RLPRTMV peptide amide) had an IC50(µM), plaque assay, infection of MDCK cells greater than 100 µM.

For the substance “C18-s2(5-11) (C18-RTMVHPK peptide amide)”, the IC50(µM), plaque assay, infection of MDCK cells is greater than 100 µM.

As for “C18-s2(8-15) (C18-VHPKPAQP peptide amide)”, the IC50(µM), plaque assay, infection of MDCK cells stood at 10.5 µM.

Turning to C18-s2(1-3) (C18-ARL peptide amide), the IC50(µM), plaque assay, infection of MDCK cells was greater than 100 µM.

Substance “C18-s2(r1-8) (C18-VMTRPLRA peptide amide)” returned an IC50(µM), plaque assay, infection of MDCK cells of 226 µM.

Consider C18-s2(1-6) (C18-ARLPRT peptide amide), for which the IC50(µM), plaque assay, infection of MDCK cells amounted to 5 µM.

On to C18-s2(1-4) (C18-ARLP peptide amide), for which the IC50(µM), plaque assay, infection of MDCK cells is 21 µM.

A further assay has the same target. The assay is described as follows: cell-based or functional assay. This is another data set of the same source.
C18-s2(r1-4) (C18-PLRA peptide amide) had an IC50(µM), plaque assay, infection of MDCK cells of 14 µM.

As for “C18-s2(1-8) (C18-ARLPRTMV peptide amide)”, the IC50(µM), plaque assay, infection of MDCK cells turned out to be 1.4 µM.

C18-s2(1-5) (C18-ARLPR peptide amide) had an IC50(µM), plaque assay, infection of MDCK cells of 1.55 µM.

C18-s2(r1-5) (C18-RPLRA peptide amide) showed an IC50(µM), plaque assay, infection of MDCK cells of 0.94 µM.
